# Measurements as given in US20190185562A1.
# Legend:
# [1] = target: gp130 expressed endogenously on IMR-32/STAT3-Luc cells (human) (UniProt P40189); assay: cell-based or functional assay
# [2] = target: wild-type human GP130 on HEK293.STAT3.Luc.GP130.hLEPR reporter cells (human) (UniProt P40189); assay: cell-based or functional assay
# Chain of wild-type human GP130 on HEK293.STAT3.Luc.GP130.hLEPR reporter cells (human) (P40189 23-918): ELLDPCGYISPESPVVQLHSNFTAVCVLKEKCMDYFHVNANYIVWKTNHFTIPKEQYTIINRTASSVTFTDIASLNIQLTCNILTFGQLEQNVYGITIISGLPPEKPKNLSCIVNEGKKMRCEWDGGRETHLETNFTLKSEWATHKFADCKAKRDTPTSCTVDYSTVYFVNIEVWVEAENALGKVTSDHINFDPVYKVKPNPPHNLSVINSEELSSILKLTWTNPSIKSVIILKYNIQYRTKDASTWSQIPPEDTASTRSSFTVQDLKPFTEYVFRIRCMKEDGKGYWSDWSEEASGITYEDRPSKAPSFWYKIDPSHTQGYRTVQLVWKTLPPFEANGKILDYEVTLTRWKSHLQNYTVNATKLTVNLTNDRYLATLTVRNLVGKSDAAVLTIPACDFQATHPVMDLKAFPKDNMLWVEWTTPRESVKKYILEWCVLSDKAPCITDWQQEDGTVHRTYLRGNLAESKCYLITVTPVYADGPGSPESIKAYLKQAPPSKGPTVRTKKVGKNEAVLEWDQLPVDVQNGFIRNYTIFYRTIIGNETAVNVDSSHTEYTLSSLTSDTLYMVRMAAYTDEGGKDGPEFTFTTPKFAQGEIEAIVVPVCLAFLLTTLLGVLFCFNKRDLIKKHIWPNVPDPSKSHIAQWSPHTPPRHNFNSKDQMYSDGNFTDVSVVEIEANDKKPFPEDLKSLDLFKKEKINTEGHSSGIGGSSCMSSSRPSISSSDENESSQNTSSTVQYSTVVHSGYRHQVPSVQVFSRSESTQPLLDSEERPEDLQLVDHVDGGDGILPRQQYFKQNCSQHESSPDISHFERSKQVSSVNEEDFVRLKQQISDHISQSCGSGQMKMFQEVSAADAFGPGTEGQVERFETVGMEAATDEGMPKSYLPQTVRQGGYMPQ
# Chain of gp130 expressed endogenously on IMR-32/STAT3-Luc cells (human) (P40189 23-918): as above
Binder,EC50 of activation of IMR-32/STAT3-luc cells (STAT3-luciferase) [1],"EC50 (M), STAT3-luciferase activation of HEK293.STAT3.Luc.GP130.hLEPR (Y1141F) cells [2]","EC50 (M), STAT3-luciferase activation of HEK293.STAT3.Luc.GP130.hLEPR (a) cells [2]",Percentage activation as compared to hOSM [2],Percentage maximum activation as compared to hOSM [2]
"human Oncostatin M (ligand, UniProt P13725 26-252, looked up) AAIGSCSKEYRVLLGQLQKQTDLMQDTSRLLDPYIRIQGLDVPKLREHCRERPGAFPSEETLRGLGRRGFLQTLNATLGCVLHRLADLEQRLPKAQDLERSGLNIEDLEKLQMARPNILGLRNNIYCMAQLLDNSDTAEPTKAGRGASQPPTPTPASDAFQRKLEGCRFLHGYHRFMHSVGRVFSKWGESPNRSRRHSPHQALRKGVRRTRPSRKGKRLMTRGQLPR",0.054 nM,5.92e-10 M,1.21e-10 M,100%,100%
"human Ciliary Neurotrophic Factor (ligand, UniProt P26441 2-200, looked up) AFTEHSPLTPHRRDLCSRSIWLARKIRSDLTALTESYVKHQGLNKNINLDSADGMPVASTDQWSELTEAERLQENLQAYRTFHVLLARLLEDQQVHFTPTEGDFHQAIHTLLLQVAAFAYQIEELMILLEYKIPRNEADGMPINVGDGGLFEKKLWGLKVLQELSQWTVRSIHDLRFISSHQTGIPARGSHYIANNKKM",0.004 nM,,,,
